Experimental data reported in patent US20040002124A1 (MUNIN, published 2004).
Where no end group is shown, it is not given here.

Molecular target: T1, αVβ3 integrin purified from HUVE cell lysates (human, UniProt P06756 31-1048; P05106 27-788)
T1 construct: mature; Detergent-solubilised native heterodimer, coated on plates; also called vitronectin receptor; immobilized integrin
Assay: affinity chromatography of HUVE cell lysate on RGDSPK Sepharose
Protocol: αVβ₃ integrin purification from HUVE cell lysates was done as described in Pytela et al., Meth. Enzynmol., 144:475-489 (1987). Briefly, 10⁸ cells were lysed in 1 ml of PBS containing 1 mM CaCl₂, 1 mM MgCl₂, 0.5 mM PMSF and 100 mM octylglucoside. […] The purity of the integrin was determined by SDS-PAGE under non-reducing conditions, followed by silver staining.

T1 sequence (P06756 31-1048, chain 1 of 2): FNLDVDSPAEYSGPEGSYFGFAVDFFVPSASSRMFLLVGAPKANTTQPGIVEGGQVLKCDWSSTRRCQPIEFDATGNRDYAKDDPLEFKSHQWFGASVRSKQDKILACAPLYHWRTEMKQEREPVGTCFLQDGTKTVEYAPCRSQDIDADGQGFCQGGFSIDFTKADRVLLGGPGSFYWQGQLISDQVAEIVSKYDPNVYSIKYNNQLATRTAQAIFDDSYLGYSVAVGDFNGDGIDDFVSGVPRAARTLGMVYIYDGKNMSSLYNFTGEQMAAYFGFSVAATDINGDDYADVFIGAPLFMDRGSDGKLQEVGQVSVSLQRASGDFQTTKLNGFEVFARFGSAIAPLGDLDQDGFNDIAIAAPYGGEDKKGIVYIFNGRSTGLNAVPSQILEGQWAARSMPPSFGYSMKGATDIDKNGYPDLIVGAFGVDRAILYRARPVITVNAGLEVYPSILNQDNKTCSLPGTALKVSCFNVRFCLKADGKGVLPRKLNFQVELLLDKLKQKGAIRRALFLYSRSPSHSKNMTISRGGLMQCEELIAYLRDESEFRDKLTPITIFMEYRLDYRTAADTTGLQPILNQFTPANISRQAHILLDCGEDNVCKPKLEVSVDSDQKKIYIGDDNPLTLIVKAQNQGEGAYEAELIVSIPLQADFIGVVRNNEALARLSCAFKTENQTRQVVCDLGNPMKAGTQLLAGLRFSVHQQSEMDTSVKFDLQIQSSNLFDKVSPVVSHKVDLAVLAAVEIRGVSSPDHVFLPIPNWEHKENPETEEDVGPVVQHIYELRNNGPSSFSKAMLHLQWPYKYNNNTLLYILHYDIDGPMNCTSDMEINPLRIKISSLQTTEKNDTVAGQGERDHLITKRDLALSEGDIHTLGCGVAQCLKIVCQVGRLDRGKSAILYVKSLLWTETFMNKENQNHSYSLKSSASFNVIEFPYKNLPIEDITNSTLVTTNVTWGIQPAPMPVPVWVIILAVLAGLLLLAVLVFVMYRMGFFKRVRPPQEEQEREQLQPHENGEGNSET
T1 sequence (P05106 27-788, chain 2 of 2): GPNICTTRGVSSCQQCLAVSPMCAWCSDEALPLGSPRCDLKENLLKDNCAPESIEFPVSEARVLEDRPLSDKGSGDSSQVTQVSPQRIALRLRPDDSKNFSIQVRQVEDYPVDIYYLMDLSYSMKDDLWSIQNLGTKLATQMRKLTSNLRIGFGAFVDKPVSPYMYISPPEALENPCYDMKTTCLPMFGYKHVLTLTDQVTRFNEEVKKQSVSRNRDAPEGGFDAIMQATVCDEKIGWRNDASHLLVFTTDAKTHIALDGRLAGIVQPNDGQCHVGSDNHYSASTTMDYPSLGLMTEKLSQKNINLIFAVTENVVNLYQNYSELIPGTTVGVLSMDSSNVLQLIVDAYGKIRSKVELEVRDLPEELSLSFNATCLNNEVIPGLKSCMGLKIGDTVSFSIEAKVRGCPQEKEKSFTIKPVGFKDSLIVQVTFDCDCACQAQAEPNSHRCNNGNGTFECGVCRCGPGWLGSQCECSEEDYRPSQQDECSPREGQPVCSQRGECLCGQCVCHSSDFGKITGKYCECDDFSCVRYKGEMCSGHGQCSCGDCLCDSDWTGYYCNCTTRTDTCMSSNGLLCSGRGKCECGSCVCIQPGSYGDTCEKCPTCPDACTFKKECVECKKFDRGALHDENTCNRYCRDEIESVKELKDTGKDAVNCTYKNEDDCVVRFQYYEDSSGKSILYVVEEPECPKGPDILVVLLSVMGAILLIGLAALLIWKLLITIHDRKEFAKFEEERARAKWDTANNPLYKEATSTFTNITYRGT

binding result: binds
Binder: RGDSPK (also: coupled to cyanogen bromide activated Sepharose CL 4B, also called RGDSPK peptide) [RGDSPK Sepharose]
